Data on 2 substances can be found in US7074765B2, “Synthetic peptide analogs of Arg-Pro-Pro-Gly-Phe as selective inhibitors of thrombin and thrombin activation of protease activated receptors 1 and 4” (The Regents of the University of Michigan, priority 2003, dated 2006).

Like-named read-outs stand apart in the source and are kept apart here. Ends that are not written are not given here.

Assay [1] concerns the target T1, SILPAPRGYPGQ, thrombin binding and cleaving region on human PAR4 (Homo sapiens, UniProt Q96RI0).
T1 construct: host or cells: synthetic peptide
In words: Inhibition of SILPAPRGYPGQ-biotin binding to RPPGC. The conditions noted are these: 10 micromolar biotinylated-SIL12; 0.001 to 5 mM peptide. How it is done:
Investigations were performed to determine if the compounds in the present invention interact with human PAR4. In FIG. 11, RPPGC (SEQ ID NO:10) was bound to plastic microtiter plates, After washing, biotinylated-[…] (SEQ ID NO:14) was incubated with the cuvette wells in the absence or presence of 0.001 to 5 mM RPPGF (SEQ ID NO:4), TH146, TH26, SIL12 (SEQ ID NO:9), or a scrambled peptide of RPPGF, FPRPG (Phe-Pro-Arg-Pro-Gly, SEQ ID NO:21). Peptide […]

Assay [2] relates to normal human lung fibroblasts (NHLF). Nature of the assay: α-thrombin-induced calcium mobilization in fibroblasts. The class given is cell-based. The note with it: 0.1 mM peptide; α-thrombin-induced calcium mobilization in fibroblasts. Here is the method: The second assay developed to assess peptides from the combinatorial libraries uses inhibition of α-thrombin-induced calcium mobilization in fibroblasts. Normal human lung fibroblasts (NHLF) were purchased from Clonetics, San Diego, Calif., an affiliate of Bio-Wittaker, Walkersville, Md. The cytoplasmic free Ca^2+ concentration ([Ca^2+]i) was measured using the fluorescent Ca^2+ indicator fura-2 (Molecular Probes, Inc., Eugene, Oreg.). Suspension of fibroblasts in Hepes-Tyrode's buffer were loaded with fura-2 by incubation at 37° C. with 2 μM fura-2/acetoxymethyl ester for 45 minutes according to the method of Rasmussen et al., J. Biol. Chem. 268, 14322 (1993). The labeled fibroblasts were separated from excess probe by washing by centrifugation at 1000 rpm (180×g). Aliquots of the labeled fibroblasts were transferred into a quartz cuvette with a magnetic stirrer, which was then placed in a thermostatically controlled chamber at 37° C. in a fluorescence spectrophotometer (Perkin-Elmer LS50B spectrofluorometer, Chicago, Ill.). Reagents, test peptide, and α-thrombin (0.25–2 nM), were sequentially added directly to the cuvette. The excitation wavelengths varied between 340 and 380 nm. Fluorescence was measured by recording emitted light at 510 nm as reported by Fisher et al., Mol Pharm. 35, 195 (1989). The minimum emission was determined on a solubilized fibroblast sample in the presence of 10 mM EDTA; maximum emission was determined on the same sample with 10 mM Ca^2+ added. The intrafibroblast free Ca^2+ concentration was calculated by the method of Grykiewicz et al., J. Biol. Chem. 260, 3440 (1985). […] The KD for fura-2 was assumed to be 224 nM. Rmax and Rmin are the maximum and minimum fluorescence ratios measured at the end of the experiment, respectively; Sf2 and Sb2 are the fluorescence values at 380 nm in the absence and presence of saturating [Ca^2+], respectively. The reaction was monitored for 3–5 minutes.

Assay [3] has as its target T2, recombinant protease activated receptor 1 extracellular domain (rPAR1EC) (Homo sapiens, UniProt P25116).
T2 construct: A portion of the extracellular domain of human PAR1 (Ala^26-Ser^99) (rPAR1EC) was expressed in Escherichia coli; His10-DDDDK (pET19b) (N); made in house; host or cells: E. coli BL21(DE3), pET19b
T2 sequence (P25116 26-99): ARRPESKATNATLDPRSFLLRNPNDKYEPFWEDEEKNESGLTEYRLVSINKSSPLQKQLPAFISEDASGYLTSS
In words: Inhibition of RPPGF-biotin binding to rPAR1EC. The note with it: 5 mM peptide, 50 μM RPPGF-biotin (FIG. 7); listed in decreasing order.

In assay [4] the test system is lipopolysaccharide-treated rats. The note with it: infusion; cited from earlier work.
Assay [5] deals with T3, α-thrombin cleavage of recombinant extracellular fragment of human PAR1 (rPAR1EC) (Homo sapiens, UniProt P00734).
T3 construct: A portion of the extracellular domain of human PAR1 (Ala^26-Ser^99) (rPAR1EC) was expressed in Escherichia coli; with 1 nM of α-thrombin or 0.5 μg/mL thrombocytin (16.7 nM); His10-DDDDK (pET19b) (N); made in house; host or cells: E. coli BL21(DE3), pET19b (rPAR1EC)
In words: Inhibition of α-thrombin-induced cleavage of rPAR1EC. The class given is biochemical. Here is the method:
(§1) Thrombocytin is a snake venom enzyme that activates platelets by cleaving PAR1 at the thrombin cleavage site (Santos et al., FEBS Letters. 18, 3570–3577 (2000)). […] The ability of MAP4-rOicPGF to block thrombocytin cleavage of rPAR1EC was performed as follows. One μg of rPAR1EC in 0.01 mM Tris-HCL, 0.2 M NaCl, pH 8.0 was incubated at 37° C. for 15 min or 45 min with 1 nM of α-thrombin or 0.5 μg/mL thrombocytin (16.7 nM), respectively, in the absence or presence of 0.025 to 1 mM MAP4-rOicPGF. The reaction mixture was separated on SDS-PAGE and stained with Coomassie Brilliant Blue. The cleaved gel images were scanned using the software Scion Image, ScionCorp, Frederick, Md.

The target of assay [6] is T4, recombinant extracellular fragment of human protease activated receptor 4 (rPAR4EC) (Homo sapiens, UniProt Q96RI0).
T4 construct: starting with Gly^18, the first amino acid after the signal peptide is removed, and finishing with Arg^78; made in house; host or cells: E. coli BL21, pET19b-PAR4
T4 sequence (Q96RI0 18-78): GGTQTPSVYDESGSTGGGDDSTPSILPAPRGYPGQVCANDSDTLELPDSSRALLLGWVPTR
In words: Inhibition of RPPGF-biotin binding to rPAR4EC. The note with it: 5 mM peptide; 50 μM RPPGF-biotin. The text has this: The extracellular fragment of human PAR4 has been expressed in bacteria. Human erythroleukemia (HEL) cells were used as a source for PAR4 mRNA. The level of PAR4 mRNA was substantially higher in HEL cells than washed human platelets. […] These primers give a 204 basepair fragment which code for a 61 amino acid hPAR4 protein starting with Gly^18, the first amino acid after the signal peptide is removed, and finishing with Arg^78, the last amino acid of the extracellular fragment (Xu et al. Proc. Natl. Acad. Sci. 95, 6642–6646 (1998)). The pET19b-PAR4 vector after cloning was used to transform BL21 cells to express the recombinant protein. The expressed recombinant protein was purified on a DEAE Sephadex followed by a nickel affinity column (the recombinant protein has a 10 His-tag on its amino terminal end). The isolated, recombinant extracellular domain of PAR4 (rPAREC) is about 15 kDa on 16.5% Tris-Tricine SDS-PAGE. The recombinant protein is recognized as being human PAR4 by detection with an antibody prepared from a peptide (S^41[…]^52) (SEQ ID NO:9) from human PAR4EC. Recombinant PAR4EC was linked to microtiter plate cuvette wells. Goat polyclonal antibody to human PAR1, PAR3, or PAR4 was incubated with the coated microtiter plate cuvette wells and antibody binding was detected. Only antibody to PAR4 detected rPAR4EC linked to the microtiter plate wells. […]

Assay [7] deals with platelet activation and deposition. The note with it: ex vivo balloon injury; similar to aspirin; cited from earlier work.
Assay [8] concerns coronary thrombosis. The note with it: canine electrolytic injury model; similar to aspirin treatment; cited from earlier work.
The target of assay [9] is thrombin (Homo sapiens, UniProt P00734). The note with it: read-out: Ki (retrobinders to the active site of thrombin); cited from earlier work.
Assay [10] concerns mouse carotid artery. The conditions noted are these: cited from earlier work.
For assay [11], the system named is cyclic flow variations. The note with it: Folt's model, canine; similar degree as aspirin or clopidogrel; cited from earlier work.
The test system of assay [12] is mouse platelets. The note with it: cited from earlier work.
In assay [13] the target is T5, thrombocytin cleavage of recombinant human PAR1 extracellular domain (Homo sapiens, UniProt P25116).
T5 construct: A portion of the extracellular domain of human PAR1 (Ala^26-Ser^99) (rPAR1EC) was expressed in Escherichia coli; His10-DDDDK (pET19b) (N); made in house; host or cells: E. coli BL21(DE3), pET19b (rPAR1EC)
T5 sequence (P25116 26-99): T2 sequence (P25116 26-99)
In words: Inhibition of thrombocytin-induced cleavage of rPAR1EC. The note with it: 16.7 nM thrombocytin, 45 min, 37° C.; below concentration that blocks the enzyme's proteolytic activity. The class given is biochemical. Here is the method: as §1

With “rPPGF (RPPGF; not fully specified (residue 1); printed as rPPGF) [Arg-Pro-Pro-Gly-Phe, peptide of the RPPGF analog library]”, the “blocking of biotinylated-SILPAPRGYPGQ binding to RPPGC” value in assay [1] is “blocked”. In addition, the “Ca^2^+ % Inhibition At 0.1 mM Peptide” value in assay [2] is given as “No Effect”. Moreover, the “blocking of RPPGF-biotin binding to rPAR1EC by peptides” value in assay [3] is “blocked”. The time to death result in assay [4] is “delays the time to death”. Further, in assay [5], the “effect on α-thrombin cleavage of rPAR1EC” value is given as “prevents these enzymes from cleaving rPAR1EC”. In addition, the “blocking of RPPGF-biotin binding to rPAR4EC” value in assay [6] is “block”. For the same substance, the “platelet activation and deposition” value in assay [7] is “reduced platelet activation and deposition”. Moreover, the “effect on coronary thrombosis” value in assay [8] was “prevents coronary thrombosis”.
By Ki is commonly meant a dissociation constant, usually derived from enzyme kinetics or from competition with a known ligand. With “β-Ala-Lys-2Lys-4(Arg-Pro-Pro-Gly-Phe) (RPPGF; also: four copies on beta-Ala-Lys-2Lys-4 branched core) [MAP4-RPPGF, four-branched peptide of RPPGF on a β-alanine-lysine core]”, the Ki in [9] was 1750 µM. For the same substance, the “blocking of RPPGF-biotin binding to rPAR1EC by peptides” value in assay [3] was “blocked”. For the same substance, in assay [10], the “time to thrombosis of the mouse carotid artery” value is reported as “delays the time to thrombosis”. In addition, in assay [11], the “effect on cyclic flow variations” value is “prevents cyclic flow variations”. Further, the “effect on α-thrombin cleavage of rPAR1EC” value in assay [5] (1 nM α-thrombin, 15 min, 37° C.) is on record as “prevents these enzymes from cleaving rPAR1EC”. Further, the mouse platelet aggregation entry in assay [12] is listed as “inhibits mouse platelet aggregation”. The “concentration that blocks thrombocytin cleavage of rPAR1EC” value in [13] fell in the range of 0.2 to 0.5 mM.
